This is an account of results in patent US20080213909A1, “PHARMACEUTICAL PACKAGING ASSAY” (priority 2006, published 2008).

The nature of data set [1]: Direct vial assay: adsorption of labeled insulin to various coated surfaces (fluorescence). The data set is classed as physicochemical. As to conditions: 10 μg/mL in 50 mM phosphate buffer pH 7, 4° C., 72 hours; nine surfaces (FIG. 6). The source says:
(§1) One aspect of the invention is an assay method for the determination of drug adsorption to commercially available pharmaceutical packaging surfaces and test surfaces under development. Pharmaceutical packaging surface materials include glass, polymers (polyethylene, polypropylene, polycarbonate, polyterphalate, cylic olefin copolymer, etc.), elastomers (rubbers, etc.), metals and alloys for vials, syringes, ampoules, cartridges, stoppers, etc. and components thereof. The assay consists of the following steps: • 1) Drug of interest is labeled with a fluorescent chemical group and degree of incorporation of dye is quantified. • 2) Calibration curves of various concentrations of the fluorescently labeled biomolecules are generated. • 3) Fluorescently labeled drug solution is exposed to the pharmaceutical packaging surface of interest for a length of time ranging from minutes to years. • 4) Fluorescently labeled drug solution is removed from pharmaceutical packaging surface of interest. This solution can be analyzed to determine the amount of drugs remaining in the solution. […] Aliquots of the solution, or aliquots of the solution first concentrated, are then applied to a sample holding surface for determination of biomolecular adsorption via fluorescence measurements. […]

For data set [2] the following is noted: supplier material data; cited from earlier work.
Data set [3] is described as follows: Direct vial assay: adsorption of Cy3-labeled fibrinogen to coated Type 1 glass surfaces (fluorescence). The data set is classed as physicochemical. Particulars: 5 μg/mL in 50 mM phosphate buffer pH 7, 4° C., 72 hours; four surfaces (FIG. 3).
Description: as §1

Consider “insulin: Porcine insulin from Sigma (15523), test biomolecule”, for which the “protein adsorption to sample surfaces, normalized to Type 1 vial” value in data set [1] is “quantifiable difference in protein adsorption between various sample surfaces”. Further, the pI in data set [2] was 7.0.

On to fibrinogen, for which the pI in data set [2] is recorded as 5.4. Also, in data set [3], the “protein adsorption to sample surfaces” value is “quantifiable difference in protein adsorption between various sample surfaces”.
